From patent publication US20260209362A1 (VIB VZW, published 2026)
Changes are numbered by the printed parent chain.

How the values were obtained:
[1] = target: T1, biotinylated recombinant human IL-12Rβ2 (human, UniProt Q99665 24-622, random biotinylated); assay: ELISA, periplasmic extract on biotinylated hIL-12Rβ2, signal over control wells
T1 construct: Recombinant protein produced in-house, biotinylated; also called hIL-12RB2; human IL-12RB2
T1 sequence: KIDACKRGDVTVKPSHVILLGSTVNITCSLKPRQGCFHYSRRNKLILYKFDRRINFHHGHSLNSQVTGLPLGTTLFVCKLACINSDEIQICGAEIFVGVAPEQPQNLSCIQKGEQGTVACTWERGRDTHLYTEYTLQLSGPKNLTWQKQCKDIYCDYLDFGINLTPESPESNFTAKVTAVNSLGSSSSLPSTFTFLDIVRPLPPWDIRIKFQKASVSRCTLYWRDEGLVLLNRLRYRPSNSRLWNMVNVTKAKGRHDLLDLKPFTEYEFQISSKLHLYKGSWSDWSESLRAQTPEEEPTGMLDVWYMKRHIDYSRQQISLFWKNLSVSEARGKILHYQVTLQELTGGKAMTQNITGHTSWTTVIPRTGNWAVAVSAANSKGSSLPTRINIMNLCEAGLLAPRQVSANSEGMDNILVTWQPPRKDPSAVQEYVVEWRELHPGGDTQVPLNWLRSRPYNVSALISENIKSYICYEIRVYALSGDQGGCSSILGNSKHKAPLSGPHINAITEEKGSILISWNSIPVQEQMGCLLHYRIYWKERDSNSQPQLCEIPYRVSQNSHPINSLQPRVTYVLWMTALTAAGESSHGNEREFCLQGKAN

[2] = target: T2, biotinylated recombinant mouse IL-12Rβ2 (mouse, UniProt P97378 24-637, random biotinylated); assay: ELISA, periplasmic extract on biotinylated mIL-12Rβ2, signal over control wells
T2 construct: Recombinant protein produced in-house, biotinylated; also called mIL-12RB2; mouse IL-12RB2
T2 sequence: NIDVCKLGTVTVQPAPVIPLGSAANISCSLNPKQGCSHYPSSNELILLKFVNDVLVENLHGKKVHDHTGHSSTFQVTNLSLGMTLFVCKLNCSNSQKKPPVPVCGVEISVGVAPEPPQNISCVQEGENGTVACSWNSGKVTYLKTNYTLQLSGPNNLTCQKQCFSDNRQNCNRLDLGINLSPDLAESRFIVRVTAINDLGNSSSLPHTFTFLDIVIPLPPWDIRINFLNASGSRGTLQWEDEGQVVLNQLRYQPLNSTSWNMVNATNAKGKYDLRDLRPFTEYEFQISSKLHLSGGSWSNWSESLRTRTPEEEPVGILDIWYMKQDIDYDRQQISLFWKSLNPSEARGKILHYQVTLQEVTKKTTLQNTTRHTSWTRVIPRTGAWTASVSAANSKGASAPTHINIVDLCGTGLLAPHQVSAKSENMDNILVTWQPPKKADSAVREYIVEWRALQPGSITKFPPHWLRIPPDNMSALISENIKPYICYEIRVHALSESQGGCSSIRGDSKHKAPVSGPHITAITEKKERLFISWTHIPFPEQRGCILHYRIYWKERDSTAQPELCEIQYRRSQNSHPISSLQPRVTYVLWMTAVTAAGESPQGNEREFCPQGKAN

B1: anti-IL-12Rβ2 VHH clone 20498 (VHH, not shown: small tags and cut ends)
VHH: QVQLQESGGGLVQAGGSLRLSCASSGRTFSSRTVGWFRQAPGKERYFVAAISRDTAYTDYADSVKGRFTISRGNAKNTVYLQMNSLNPEDTAVYYCAASHIYSGSHYISARSSDYMYWGQGTQVTVSS
notes: tested as periplasmic extract; also called 2CAM73
- ELISA binding hIL-12RB2/control [1]: 0.994 ratio
- ELISA binding mIL-12RB2/control [2]: 6.62 ratio

B2: anti-IL-12Rβ2 VHH clone 20444 (VHH, not shown: small tags and cut ends)
VHH: QVQLQESGGGLVQAGGSLRLSCTASGSIFAIDDMYWYRQAPGKQREFVAYITATNSANYLDSVNGRFTISRDNAKNSVYLQMNSLKPEDTAVYYCNAKQIVGFQIDEYWGQGTQVTVSS
notes: tested as periplasmic extract; also called 2CRM18
- ELISA binding hIL-12RB2/control [1]: 0.985 ratio
- ELISA binding mIL-12RB2/control [2]: 4.68 ratio

B3: anti-IL-12Rβ2 VHH clone 20442 (VHH, not shown: small tags and cut ends)
VHH: B2 VHH with A14P
notes: tested as periplasmic extract; also called 2CRM12
- ELISA binding hIL-12RB2/control [1]: 0.993 ratio
- ELISA binding mIL-12RB2/control [2]: 6.67 ratio

B4: anti-IL-12Rβ2 VHH clone 20454 (VHH, not shown: small tags and cut ends)
VHH: B2 VHH with G16D, K75E, A91V
notes: tested as periplasmic extract; also called 2CRM93
- ELISA binding hIL-12RB2/control [1]: 0.996 ratio
- ELISA binding mIL-12RB2/control [2]: 5.04 ratio

B5: anti-IL-12Rβ2 VHH clone 20456 (VHH, not shown: small tags and cut ends)
VHH: B2 VHH with A14P, R19T
notes: tested as periplasmic extract; also called 3CRM14
- ELISA binding hIL-12RB2/control [1]: 1.24 ratio
- ELISA binding mIL-12RB2/control [2]: 12.1 ratio

B6: anti-IL-12Rβ2 VHH clone 20446 (VHH, not shown: small tags and cut ends)
VHH: B2 VHH with A14P, I31S
notes: tested as periplasmic extract; also called 2CRM32
- ELISA binding hIL-12RB2/control [1]: 1.01 ratio
- ELISA binding mIL-12RB2/control [2]: 12 ratio

B7: anti-IL-12Rβ2 VHH clone 20458 (VHH, not shown: small tags and cut ends)
VHH: B2 VHH with Q44E
notes: tested as periplasmic extract; also called 3CRM45
- ELISA binding hIL-12RB2/control [1]: 1.47 ratio
- ELISA binding mIL-12RB2/control [2]: 28.4 ratio

B8: anti-IL-12Rβ2 VHH clone 20455 (VHH, not shown: small tags and cut ends)
VHH: B2 VHH with A14P, A97T
notes: tested as periplasmic extract; also called 3CRM6
- ELISA binding hIL-12RB2/control [1]: 1.4 ratio
- ELISA binding mIL-12RB2/control [2]: 11.5 ratio

B9: anti-IL-12Rβ2 VHH clone 20481 (VHH, not shown: small tags and cut ends)
VHH: QVQLQESGGGLVQAGGSLRLSCAASGRTFSSYGMGWFRQAPGKERDFVAAISRDARITDYADSVKGRFTISRDNVKNTVYLQMNSLNPEDTAVYFCAAAYTYSGSHYVTARSSDYHSWGQGTQVTVSS
notes: tested as periplasmic extract; also called 2CAM38
- ELISA binding hIL-12RB2/control [1]: 0.983 ratio
- ELISA binding mIL-12RB2/control [2]: 15.8 ratio

B10: anti-IL-12Rβ2 VHH clone 20478 (VHH, not shown: small tags and cut ends)
VHH: B9 VHH with R19T, R27M, T28P, F29I, S31F, Y32N, G33V, M34L, A40I
notes: tested as periplasmic extract; also called 2CAM30
- ELISA binding hIL-12RB2/control [1]: 1.02 ratio
- ELISA binding mIL-12RB2/control [2]: 8.78 ratio

B11: anti-IL-12Rβ2 VHH clone 20540 (VHH, not shown: small tags and cut ends)
VHH: B9 VHH with G16D, L20I, I57Y, R72K, V75A, V79A, S113G, H116N, S117Y
notes: tested as periplasmic extract; also called 3CAMS5
- ELISA binding hIL-12RB2/control [1]: 0.834 ratio
- ELISA binding mIL-12RB2/control [2]: 8.57 ratio

B12: anti-IL-12Rβ2 VHH clone 20544 (VHH, not shown: small tags and cut ends)
VHH: B9 VHH with S17P
notes: tested as periplasmic extract; also called 3CAMS19
- ELISA binding hIL-12RB2/control [1]: 0.919 ratio
- ELISA binding mIL-12RB2/control [2]: 9.31 ratio

B13: anti-IL-12Rβ2 VHH clone 20538 (VHH, not shown: small tags and cut ends)
VHH: B9 VHH with A14P, G16D, D46E, D54G, I57N, V75A, V79A, H116P, S117Y
notes: tested as periplasmic extract; also called 2CAMS83
- ELISA binding hIL-12RB2/control [1]: 1.07 ratio
- ELISA binding mIL-12RB2/control [2]: 4.78 ratio

B14: anti-IL-12Rβ2 VHH clone 20505 (VHH, not shown: small tags and cut ends)
VHH: B9 VHH with L11S, D46E, V75A, V79A, Q82E
notes: tested as periplasmic extract; also called 3CAM4
- ELISA binding hIL-12RB2/control [1]: 1.07 ratio
- ELISA binding mIL-12RB2/control [2]: 20.2 ratio

B15: anti-IL-12Rβ2 VHH clone 20500 (VHH, not shown: small tags and cut ends)
VHH: B9 VHH with A14P, R27F, D46E, V75A, V79A, Q82E
notes: tested as periplasmic extract; also called 2CAM81
- ELISA binding hIL-12RB2/control [1]: 0.982 ratio
- ELISA binding mIL-12RB2/control [2]: 24 ratio

B16: anti-IL-12Rβ2 VHH clone 20504 (VHH, not shown: small tags and cut ends)
VHH: QVQLQESGGGLVQAGGSLKLSCAATGFILDYVGVGWFRQAPGKERDFVAAISRDARITDYADSVKGRFTISRDNAKNTAYLQMNSLNPEDTAVYFCAAAYTYSGSHYVTARSSDYHTWGQGTQVTVSS
notes: tested as periplasmic extract; also called 3CAM3
- ELISA binding hIL-12RB2/control [1]: 1.27 ratio
- ELISA binding mIL-12RB2/control [2]: 14.5 ratio

B17: anti-IL-12Rβ2 VHH clone 20509 (VHH, not shown: small tags and cut ends)
VHH: B9 VHH with S25A, V75A, V79A, S117T, V124D
notes: tested as periplasmic extract; also called 3CAM30
- ELISA binding hIL-12RB2/control [1]: 1.31 ratio
- ELISA binding mIL-12RB2/control [2]: 10 ratio

B18: anti-IL-12Rβ2 VHH clone 20495 (VHH, not shown: small tags and cut ends)
VHH: B9 VHH with S31M, Y32H, D46E, V75A, V79A, H116N, S117Y
notes: tested as periplasmic extract; also called 2CAM69
- ELISA binding hIL-12RB2/control [1]: 0.924 ratio
- ELISA binding mIL-12RB2/control [2]: 15.8 ratio

B19: anti-IL-12Rβ2 VHH clone 20539 (VHH, not shown: small tags and cut ends)
VHH: B9 VHH with D46E, D54G, I57N, V75A, V79A, Y80F, S117T
notes: tested as periplasmic extract; also called 2CAMS87
- ELISA binding hIL-12RB2/control [1]: 1.03 ratio
- ELISA binding mIL-12RB2/control [2]: 4.89 ratio

B20: anti-IL-12Rβ2 VHH clone 20548 (VHH, not shown: small tags and cut ends)
VHH: B9 VHH with A24D, D46E, D54G, V75A, V79A
notes: tested as periplasmic extract; also called 3CAMS50
- ELISA binding hIL-12RB2/control [1]: 0.951 ratio
- ELISA binding mIL-12RB2/control [2]: 8.98 ratio

B21: anti-IL-12Rβ2 VHH clone 20516 (VHH, not shown: small tags and cut ends)
VHH: B9 VHH with G35S
notes: tested as periplasmic extract; also called 3CAM85
- ELISA binding hIL-12RB2/control [1]: 1.23 ratio
- ELISA binding mIL-12RB2/control [2]: 21.8 ratio

B22: anti-IL-12Rβ2 VHH clone 20541 (VHH, not shown: small tags and cut ends)
VHH: B9 VHH with D46E, V75A, V79A, Q82E, F95S
notes: tested as periplasmic extract; also called 3CAMS9
- ELISA binding hIL-12RB2/control [1]: 0.915 ratio
- ELISA binding mIL-12RB2/control [2]: 5.66 ratio

B23: anti-IL-12Rβ2 VHH clone 20499 (VHH, not shown: small tags and cut ends)
VHH: B9 VHH with D46E, R56S, V75A, V79A, Q82E
notes: tested as periplasmic extract; also called 2CAM75
- ELISA binding hIL-12RB2/control [1]: 0.985 ratio
- ELISA binding mIL-12RB2/control [2]: 10.4 ratio

B24: anti-IL-12Rβ2 VHH clone 20547 (VHH, not shown: small tags and cut ends)
VHH: B9 VHH with D54G, I57N, T58A, V75A, V79A, H116A, S117Y
notes: tested as periplasmic extract; also called 3CAMS47
- ELISA binding hIL-12RB2/control [1]: 1.02 ratio
- ELISA binding mIL-12RB2/control [2]: 5.12 ratio

B25: anti-IL-12Rβ2 VHH clone 20488 (VHH, not shown: small tags and cut ends)
VHH: B9 VHH with V12M, G16D, D46E, D54G, V75A, V79A
notes: tested as periplasmic extract; also called 2CAM48
- ELISA binding hIL-12RB2/control [1]: 0.973 ratio
- ELISA binding mIL-12RB2/control [2]: 12.9 ratio

B26: anti-IL-12Rβ2 VHH clone 20497 (VHH, not shown: small tags and cut ends)
VHH: B9 VHH with G16D, D46E, D54G, V75A, V79A
notes: tested as periplasmic extract; also called 2CAM72
- ELISA binding hIL-12RB2/control [1]: 0.932 ratio
- ELISA binding mIL-12RB2/control [2]: 13.4 ratio

B27: anti-IL-12Rβ2 VHH clone 20536 (VHH, not shown: small tags and cut ends)
VHH: B9 VHH with L11M, D46E, D54G, I57N, V75A, V79A, H116P, S117Y
notes: tested as periplasmic extract; also called 2CAMS53
- ELISA binding hIL-12RB2/control [1]: 0.842 ratio
- ELISA binding mIL-12RB2/control [2]: 3.38 ratio

B28: anti-IL-12Rβ2 VHH clone 20514 (VHH, not shown: small tags and cut ends)
VHH: B9 VHH with G16D, A23I, R27P, T28S, D46E, V75A, V79A, Q82E
notes: tested as periplasmic extract; also called 3CAM70
- ELISA binding hIL-12RB2/control [1]: 1.03 ratio
- ELISA binding mIL-12RB2/control [2]: 17.8 ratio

B29: anti-IL-12Rβ2 VHH clone 20491 (VHH, not shown: small tags and cut ends)
VHH: B9 VHH with I57Y, R72K, V75A, V79A, S113G, H116N, S117Y
notes: tested as periplasmic extract; also called 2CAM57
- ELISA binding hIL-12RB2/control [1]: 1 ratio
- ELISA binding mIL-12RB2/control [2]: 14.4 ratio

B30: anti-IL-12Rβ2 VHH clone 20511 (VHH, not shown: small tags and cut ends)
VHH: B9 VHH with G16E, R19T, A23T, I57Y, R72K, V75A, V79A, S113G, H116N, S117Y
notes: tested as periplasmic extract; also called 3CAM36
- ELISA binding hIL-12RB2/control [1]: 1.2 ratio
- ELISA binding mIL-12RB2/control [2]: 25.6 ratio
